Assay results from PMC6804253, “Predicting and Experimentally Validating Hot-Spot Residues at Protein–Protein Interfaces” (ACS Chemical Biology, 2019).
Numbering of substitutions follows the chain as printed.

B1: 1DAN RU135A (protein, UniProt P13726 33-251, looked up, variant R135A)
extracellular domain: SGTTNTVAAYNLTWKSTNFKTILEWEPKPVNQVYTVQISTKSGDWKSKCFYTTDTECDLTDEIVKDVKQTYLARVFSYPAGNVESTGSAGEPLYENSPEFTPYLETNLGQPTIQSFEQVGTKVNVTVEDERTLVARNNTFLSLRDVFGKDLIYTLYYWKSSSSGKKTAKTNTNEFLIDVDKGENYCFSVQAVIPSRTVNRKSTDSPVECMGQEKGEFRE
modifications: extracellular domain
B2: 1DAN RU144A (protein, UniProt P13726 33-251, looked up, variant R144A)
extracellular domain: B1 extracellular domain with A135R, R144A
modifications: extracellular domain
B3: 1DAN KU169A (protein, UniProt P13726 33-251, looked up, variant K169A)
extracellular domain: B1 extracellular domain with A135R, K169A
modifications: extracellular domain
B4: 1DAN DU145A (protein, UniProt P13726 33-251, looked up, variant D145A)
extracellular domain: B1 extracellular domain with A135R, D145A
modifications: extracellular domain
B5: 1DAN EU208A (protein, UniProt P13726 33-251, looked up, variant E208A)
extracellular domain: B1 extracellular domain with A135R, E208A
modifications: extracellular domain
B6: 1DAN RU196A (protein, UniProt P13726 33-251, looked up, variant R196A)
extracellular domain: B1 extracellular domain with A135R, R196A
modifications: extracellular domain
B7: 1DAN RU136A (protein, UniProt P13726 33-251, looked up, variant R136A)
extracellular domain: B1 extracellular domain with A135R, R136A
modifications: extracellular domain
B8: 1DFJ EI202A (protein, UniProt P10775 1-456, looked up, variant E202A)
Ribonuclease inhibitor: MNLDIHCEQLSDARWTELLPLLQQYEVVRLDDCGLTEEHCKDIGSALRANPSLTELCLRTNELGDAGVHLVLQGLQSPTCKIQKLSLQNCSLTEAGCGVLPSTLRSLPTLRELHLSDNPLGDAGLRLLCEGLLDPQCHLEKLQLEYCRLTAASCEPLASVLRATRALKELTVSNNDIGEAGARVLGQGLADSACQLETLRLANCGLTPANCKDLCGIVASQASLRELDLGSNGLGDAGIAELCPGLLSPASRLKTLWLWECDITASGCRDLCRVLQAKETLKELSLAGNKLGDEGARLLCESLLQPGCQLESLWVKSCSLTAACCQHVSLMLTQNKHLLELQLSSNKLGDSGIQELCQALSQPGTTLRVLCLGDCEVTNSGCSSLASLLLANRSLRELDLSNNCVGDPGVLQLLGSLEQPGCALEQLVLYDTYWTEEVEDRLQALEGSKPGLRVIS
B9: 1DFJ EI283A (protein, UniProt P10775 1-456, looked up, variant E283A)
Ribonuclease inhibitor: B8 Ribonuclease inhibitor with A202E, E283A
B10: 1DFJ RI453A (protein, UniProt P10775 1-456, looked up, variant R453A)
Ribonuclease inhibitor: B8 Ribonuclease inhibitor with A202E, R453A
B11: 1DFJ DI431A (protein, UniProt P10775 1-456, looked up, variant D431A)
Ribonuclease inhibitor: B8 Ribonuclease inhibitor with A202E, D431A
B12: 1DFJ KI316A (protein, UniProt P10775 1-456, looked up, variant K316A)
Ribonuclease inhibitor: B8 Ribonuclease inhibitor with A202E, K316A
B13: 1DFJ EI397A (protein, UniProt P10775 1-456, looked up, variant E397A)
Ribonuclease inhibitor: B8 Ribonuclease inhibitor with A202E, E397A
B14: 1DFJ EI340A (protein, UniProt P10775 1-456, looked up, variant E340A)
Ribonuclease inhibitor: B8 Ribonuclease inhibitor with A202E, E340A
B15: 1EMV DA26A (protein, UniProt P13479 1-86, looked up, variant D26A)
Colicin-E9 immunity protein: MELKHSISDYTEAEFLQLVTTICNAATSSEEELVKLVTHFEEMTEHPSGSDLIYYPKEGDDDSPSGIVNTVKQWRAANGKSGFKQG
B16: 1EMV EA41A (protein, UniProt P13479 1-86, looked up, variant E41A)
Colicin-E9 immunity protein: B15 Colicin-E9 immunity protein with A26D, E41A
B17: 1EMV EA31A (protein, UniProt P13479 1-86, looked up, variant E31A)
Colicin-E9 immunity protein: B15 Colicin-E9 immunity protein with A26D, E31A
B18: 1EMV HA46A (protein, UniProt P13479 1-86, looked up, variant H46A)
Colicin-E9 immunity protein: B15 Colicin-E9 immunity protein with A26D, H46A
B19: 1EMV EA32A (protein, UniProt P13479 1-86, looked up, variant E32A)
Colicin-E9 immunity protein: B15 Colicin-E9 immunity protein with A26D, E32A
B20: 1EMV DA60A (protein, UniProt P13479 1-86, looked up, variant D60A)
Colicin-E9 immunity protein: B15 Colicin-E9 immunity protein with A26D, D60A
B21: 1EMV DA51A (protein, UniProt P13479 1-86, looked up, variant D51A)
Colicin-E9 immunity protein: B15 Colicin-E9 immunity protein with A26D, D51A

Assays:
[1] = tested on: PPIs of the SKEMPI data set (by PDBID); details: ref SKEMPI, cited from earlier work; for sk_ddG_kJ (SKEMPI experimental ΔΔG of binding, mutation to alanine): single mutation to alanine in the complex of the given PDBID; for sk_ddG_kJ (SKEMPI experimental ΔΔG, mutation to alanine) / sk_ddG_kJ: complex by PDBID; for sk_ddG_kJ (SKEMPI experimental ΔΔG, mutation to alanine): r_group DERKH; for sk_ddG_kJ: SKEMPI experimental ΔΔG of binding
[2] = tested on: PPIs of the SKEMPI data set (by PDBID); assay: SKEMPI experimental ΔΔG, single mutations to alanine; type: binding; details: for sk_class: class of the SKEMPI experimental ΔΔG
[3] = Positive / Neutral / Negative by ΔΔG threshold 4.184 kJ/mol, ref SKEMPI
[4] = single mutation to alanine, sheet sortedByGroup
[5] = class by the 4.184 kJ/mol threshold, r_group DERKH

Molecule	sk_ddG_kJ (SKEMPI experimental ΔΔG, mutation to alanine) [1, 4]	sk_class (class of the SKEMPI experimental ΔΔG) [2, 5]	sk_ddG_kJ ([1]; single mutation to alanine)	sk_class ([2]; ref SKEMPI)	other results
1A22 VA185A	–	–	–	–	sk_ddG_kJ (SKEMPI experimental ΔΔG of binding, mutation to alanine) [1]: 3.64 kJ; sk_class (class of the SKEMPI experimental ΔΔG) [2, 3]: Neutral (neutral (little effect) 4.184 kJ/mol < ΔΔG > −4.184 kJ/mol)
1A22 YA42A	–	–	–	–	sk_ddG_kJ (SKEMPI experimental ΔΔG of binding, mutation to alanine) [1]: 0.84 kJ; sk_class (class of the SKEMPI experimental ΔΔG) [2, 3]: Neutral (neutral (little effect) 4.184 kJ/mol < ΔΔG > −4.184 kJ/mol)
1A22 YA164A	–	–	–	–	sk_ddG_kJ (SKEMPI experimental ΔΔG of binding, mutation to alanine) [1]: 1.26 kJ; sk_class (class of the SKEMPI experimental ΔΔG) [2, 3]: Neutral (neutral (little effect) 4.184 kJ/mol < ΔΔG > −4.184 kJ/mol)
1GC1 DC10A	0.00 kJ	Neutral (neutral (little effect) 4.184 kJ/mol < ΔΔG > −4.184 kJ/mol)	–	–	–
1GC1 DC53A	1.26 kJ	Neutral (neutral (little effect) 4.184 kJ/mol < ΔΔG > −4.184 kJ/mol)	–	–	–
1GC1 EC92A	0.08 kJ	Neutral (neutral (little effect) 4.184 kJ/mol < ΔΔG > −4.184 kJ/mol)	–	–	–
1GC1 KC1A	0.25 kJ	Neutral (neutral (little effect) 4.184 kJ/mol < ΔΔG > −4.184 kJ/mol)	–	–	–
1GC1 KC8A	0.46 kJ	Neutral (neutral (little effect) 4.184 kJ/mol < ΔΔG > −4.184 kJ/mol)	–	–	–
1GC1 KC35A	1.34 kJ	Neutral (neutral (little effect) 4.184 kJ/mol < ΔΔG > −4.184 kJ/mol)	–	–	–
1GC1 RC59A	4.94 kJ	Positive (positive (a hot residue) ΔΔG ≥ 4.184 kJ/mol)	–	–	–
1GC1 VC86A	–	–	–	–	sk_ddG_kJ (SKEMPI experimental ΔΔG) ([1]; single mutation to alanine, PPI given by PDBID, sheet sortedByGroup, r_group FAMILYVW): -0.29 kJ; sk_class (class of SKEMPI experimental ΔΔG) ([2]; class by ΔΔG threshold 4.184 kJ/mol, ref SKEMPI): Neutral (neutral (little effect) 4.184 kJ/mol < ΔΔG > −4.184 kJ/mol)
B1	–	–	2.18 kJ	Neutral (neutral (little effect) 4.184 kJ/mol < ΔΔG > −4.184 kJ/mol)	–
B2	–	–	0.00 kJ	Neutral (neutral (little effect) 4.184 kJ/mol < ΔΔG > −4.184 kJ/mol)	–
B3	–	–	0.50 kJ	Neutral (neutral (little effect) 4.184 kJ/mol < ΔΔG > −4.184 kJ/mol)	–
B4	–	–	-0.04 kJ	Neutral (neutral (little effect) 4.184 kJ/mol < ΔΔG > −4.184 kJ/mol)	–
B5	–	–	0.00 kJ	Neutral (neutral (little effect) 4.184 kJ/mol < ΔΔG > −4.184 kJ/mol)	–

Molecule	sk_ddG_kJ (SKEMPI experimental ΔΔG, mutation to alanine) [1, 4]	sk_class (class of the SKEMPI experimental ΔΔG) [2, 5]	sk_ddG_kJ ([1]; single mutation to alanine)	sk_class ([2]; ref SKEMPI)	other results
B6	–	–	1.92 kJ	Neutral (neutral (little effect) 4.184 kJ/mol < ΔΔG > −4.184 kJ/mol)	–
B7	–	–	-0.25 kJ	Neutral (neutral (little effect) 4.184 kJ/mol < ΔΔG > −4.184 kJ/mol)	–
B8	–	–	4.27 kJ	Positive (positive (a hot residue) ΔΔG ≥ 4.184 kJ/mol)	–
B9	–	–	5.52 kJ	Positive (positive (a hot residue) ΔΔG ≥ 4.184 kJ/mol)	–
B10	–	–	3.56 kJ	Neutral (neutral (little effect) 4.184 kJ/mol < ΔΔG > −4.184 kJ/mol)	–
B11	–	–	15.31 kJ	Positive (positive (a hot residue) ΔΔG ≥ 4.184 kJ/mol)	–
B12	–	–	5.44 kJ	Positive (positive (a hot residue) ΔΔG ≥ 4.184 kJ/mol)	–
B13	–	–	5.48 kJ	Positive (positive (a hot residue) ΔΔG ≥ 4.184 kJ/mol)	–
B14	–	–	6.57 kJ	Positive (positive (a hot residue) ΔΔG ≥ 4.184 kJ/mol)	–
B15	1.42 kJ	Neutral (neutral (little effect) 4.184 kJ/mol < ΔΔG > −4.184 kJ/mol)	–	–	–
B16	8.70 kJ	Positive (positive (a hot residue) ΔΔG ≥ 4.184 kJ/mol)	–	–	–
B17	1.30 kJ	Neutral (neutral (little effect) 4.184 kJ/mol < ΔΔG > −4.184 kJ/mol)	–	–	–
B18	3.47 kJ	Neutral (neutral (little effect) 4.184 kJ/mol < ΔΔG > −4.184 kJ/mol)	–	–	–
B19	0.92 kJ	Neutral (neutral (little effect) 4.184 kJ/mol < ΔΔG > −4.184 kJ/mol)	–	–	–
B20	2.13 kJ	Neutral (neutral (little effect) 4.184 kJ/mol < ΔΔG > −4.184 kJ/mol)	–	–	–
B21	24.77 kJ	Positive (positive (a hot residue) ΔΔG ≥ 4.184 kJ/mol)	–	–	–
